Test results published in patent publication US20250304636.

Sequence of DAP12 mutant P17 (chain, as listed by the source mutant): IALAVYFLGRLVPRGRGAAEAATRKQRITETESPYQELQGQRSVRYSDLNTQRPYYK
Sequence of DAP12 mutant P23 (chain, as listed by the source mutant): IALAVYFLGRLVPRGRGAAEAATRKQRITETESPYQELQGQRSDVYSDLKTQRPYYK
Sequence of DAP12 mutant P19 (chain, as listed by the source mutant): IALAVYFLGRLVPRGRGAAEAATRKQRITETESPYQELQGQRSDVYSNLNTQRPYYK

Substance: Syk
- tyrosine phosphorylation of Syk (IP of Syk, western blot with pan-phospho-tyrosine antibody 4G10) (DAP12 mutant P19): P17, P19 and P23 were able to induce tyrosine phosphorylation of Syk
- tyrosine phosphorylation of Syk (IP of Syk, western blot with pan-phospho-tyrosine antibody 4G10) (DAP12 mutant P17): P17, P19 and P23 were able to induce tyrosine phosphorylation of Syk
- tyrosine phosphorylation of Syk (IP of Syk, western blot with pan-phospho-tyrosine antibody 4G10) (DAP12 mutant P23): P17, P19 and P23 were able to induce tyrosine phosphorylation of Syk
